# Source: publication PMC5206724, “Insensitivity to pain induced by a potent selective closed-state Nav1.7 inhibitor” (Scientific Reports, 2017)
# Assays:
# human Nav1.5 (human) = human Nav1.5 (human) (UniProt Q14524)
# human Nav1.4 (human) = human Nav1.4 (human) (UniProt P35499)
# human Nav1.6 (human) = human Nav1.6 (human) (UniProt Q9UQD0)
# human Nav1.2 (human) = human Nav1.2 (human) (UniProt Q99250)
# human Nav1.3 (human) = human Nav1.3 (human) (UniProt Q9NY46)
# human Nav1.1 (human) = human Nav1.1 (human) (UniProt P35498)
# Chain of human Nav1.5 (human) (Q14524 whole entry): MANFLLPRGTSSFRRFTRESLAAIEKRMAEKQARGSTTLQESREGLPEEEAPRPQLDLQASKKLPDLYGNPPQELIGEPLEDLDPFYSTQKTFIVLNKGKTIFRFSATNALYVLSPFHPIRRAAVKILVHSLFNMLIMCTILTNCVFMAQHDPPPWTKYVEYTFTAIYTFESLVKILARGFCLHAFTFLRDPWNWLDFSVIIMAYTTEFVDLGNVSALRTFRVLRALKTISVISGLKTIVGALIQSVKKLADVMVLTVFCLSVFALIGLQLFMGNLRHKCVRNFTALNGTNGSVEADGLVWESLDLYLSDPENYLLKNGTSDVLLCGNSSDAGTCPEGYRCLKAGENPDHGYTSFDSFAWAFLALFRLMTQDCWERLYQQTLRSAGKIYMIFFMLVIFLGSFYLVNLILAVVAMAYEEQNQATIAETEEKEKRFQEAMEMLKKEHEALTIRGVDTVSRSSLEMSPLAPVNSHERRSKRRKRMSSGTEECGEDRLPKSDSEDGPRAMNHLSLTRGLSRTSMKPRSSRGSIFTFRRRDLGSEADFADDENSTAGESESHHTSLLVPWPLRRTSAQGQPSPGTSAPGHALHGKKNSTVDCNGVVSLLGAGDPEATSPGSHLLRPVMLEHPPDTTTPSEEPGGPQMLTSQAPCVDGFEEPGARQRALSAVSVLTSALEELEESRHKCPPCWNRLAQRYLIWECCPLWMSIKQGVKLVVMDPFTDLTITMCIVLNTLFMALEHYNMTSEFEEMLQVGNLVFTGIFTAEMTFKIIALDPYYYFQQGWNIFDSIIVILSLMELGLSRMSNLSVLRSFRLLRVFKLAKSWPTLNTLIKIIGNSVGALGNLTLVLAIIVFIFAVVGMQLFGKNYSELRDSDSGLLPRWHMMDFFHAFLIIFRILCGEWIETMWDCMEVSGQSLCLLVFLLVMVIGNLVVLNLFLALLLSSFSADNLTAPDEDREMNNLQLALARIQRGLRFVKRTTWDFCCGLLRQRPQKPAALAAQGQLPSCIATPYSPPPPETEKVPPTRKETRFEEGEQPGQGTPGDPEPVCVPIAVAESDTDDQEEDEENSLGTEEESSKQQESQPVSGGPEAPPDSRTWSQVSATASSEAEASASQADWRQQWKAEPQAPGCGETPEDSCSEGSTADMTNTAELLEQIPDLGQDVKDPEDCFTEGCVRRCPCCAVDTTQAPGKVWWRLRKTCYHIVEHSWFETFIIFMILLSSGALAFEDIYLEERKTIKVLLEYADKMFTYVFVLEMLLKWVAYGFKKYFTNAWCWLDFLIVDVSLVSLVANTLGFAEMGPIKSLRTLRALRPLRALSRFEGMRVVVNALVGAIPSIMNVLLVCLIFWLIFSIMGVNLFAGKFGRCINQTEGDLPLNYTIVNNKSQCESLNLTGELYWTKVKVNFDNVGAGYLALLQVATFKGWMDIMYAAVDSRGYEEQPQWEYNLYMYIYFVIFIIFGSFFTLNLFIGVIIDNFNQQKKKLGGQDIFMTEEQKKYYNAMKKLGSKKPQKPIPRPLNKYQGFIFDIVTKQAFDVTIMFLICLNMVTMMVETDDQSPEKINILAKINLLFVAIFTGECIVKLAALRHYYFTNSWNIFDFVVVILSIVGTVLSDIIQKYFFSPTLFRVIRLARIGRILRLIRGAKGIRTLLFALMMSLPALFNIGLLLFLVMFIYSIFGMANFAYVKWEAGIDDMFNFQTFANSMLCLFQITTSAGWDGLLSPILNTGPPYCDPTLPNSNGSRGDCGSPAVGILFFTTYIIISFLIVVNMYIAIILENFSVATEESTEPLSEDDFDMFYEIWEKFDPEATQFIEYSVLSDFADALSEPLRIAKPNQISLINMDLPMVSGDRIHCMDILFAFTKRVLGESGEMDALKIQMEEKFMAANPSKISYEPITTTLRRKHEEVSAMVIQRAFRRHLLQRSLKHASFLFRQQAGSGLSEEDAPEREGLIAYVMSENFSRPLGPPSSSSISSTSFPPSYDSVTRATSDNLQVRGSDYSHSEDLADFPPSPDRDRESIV
# Chain of human Nav1.2 (human) (Q99250 whole entry): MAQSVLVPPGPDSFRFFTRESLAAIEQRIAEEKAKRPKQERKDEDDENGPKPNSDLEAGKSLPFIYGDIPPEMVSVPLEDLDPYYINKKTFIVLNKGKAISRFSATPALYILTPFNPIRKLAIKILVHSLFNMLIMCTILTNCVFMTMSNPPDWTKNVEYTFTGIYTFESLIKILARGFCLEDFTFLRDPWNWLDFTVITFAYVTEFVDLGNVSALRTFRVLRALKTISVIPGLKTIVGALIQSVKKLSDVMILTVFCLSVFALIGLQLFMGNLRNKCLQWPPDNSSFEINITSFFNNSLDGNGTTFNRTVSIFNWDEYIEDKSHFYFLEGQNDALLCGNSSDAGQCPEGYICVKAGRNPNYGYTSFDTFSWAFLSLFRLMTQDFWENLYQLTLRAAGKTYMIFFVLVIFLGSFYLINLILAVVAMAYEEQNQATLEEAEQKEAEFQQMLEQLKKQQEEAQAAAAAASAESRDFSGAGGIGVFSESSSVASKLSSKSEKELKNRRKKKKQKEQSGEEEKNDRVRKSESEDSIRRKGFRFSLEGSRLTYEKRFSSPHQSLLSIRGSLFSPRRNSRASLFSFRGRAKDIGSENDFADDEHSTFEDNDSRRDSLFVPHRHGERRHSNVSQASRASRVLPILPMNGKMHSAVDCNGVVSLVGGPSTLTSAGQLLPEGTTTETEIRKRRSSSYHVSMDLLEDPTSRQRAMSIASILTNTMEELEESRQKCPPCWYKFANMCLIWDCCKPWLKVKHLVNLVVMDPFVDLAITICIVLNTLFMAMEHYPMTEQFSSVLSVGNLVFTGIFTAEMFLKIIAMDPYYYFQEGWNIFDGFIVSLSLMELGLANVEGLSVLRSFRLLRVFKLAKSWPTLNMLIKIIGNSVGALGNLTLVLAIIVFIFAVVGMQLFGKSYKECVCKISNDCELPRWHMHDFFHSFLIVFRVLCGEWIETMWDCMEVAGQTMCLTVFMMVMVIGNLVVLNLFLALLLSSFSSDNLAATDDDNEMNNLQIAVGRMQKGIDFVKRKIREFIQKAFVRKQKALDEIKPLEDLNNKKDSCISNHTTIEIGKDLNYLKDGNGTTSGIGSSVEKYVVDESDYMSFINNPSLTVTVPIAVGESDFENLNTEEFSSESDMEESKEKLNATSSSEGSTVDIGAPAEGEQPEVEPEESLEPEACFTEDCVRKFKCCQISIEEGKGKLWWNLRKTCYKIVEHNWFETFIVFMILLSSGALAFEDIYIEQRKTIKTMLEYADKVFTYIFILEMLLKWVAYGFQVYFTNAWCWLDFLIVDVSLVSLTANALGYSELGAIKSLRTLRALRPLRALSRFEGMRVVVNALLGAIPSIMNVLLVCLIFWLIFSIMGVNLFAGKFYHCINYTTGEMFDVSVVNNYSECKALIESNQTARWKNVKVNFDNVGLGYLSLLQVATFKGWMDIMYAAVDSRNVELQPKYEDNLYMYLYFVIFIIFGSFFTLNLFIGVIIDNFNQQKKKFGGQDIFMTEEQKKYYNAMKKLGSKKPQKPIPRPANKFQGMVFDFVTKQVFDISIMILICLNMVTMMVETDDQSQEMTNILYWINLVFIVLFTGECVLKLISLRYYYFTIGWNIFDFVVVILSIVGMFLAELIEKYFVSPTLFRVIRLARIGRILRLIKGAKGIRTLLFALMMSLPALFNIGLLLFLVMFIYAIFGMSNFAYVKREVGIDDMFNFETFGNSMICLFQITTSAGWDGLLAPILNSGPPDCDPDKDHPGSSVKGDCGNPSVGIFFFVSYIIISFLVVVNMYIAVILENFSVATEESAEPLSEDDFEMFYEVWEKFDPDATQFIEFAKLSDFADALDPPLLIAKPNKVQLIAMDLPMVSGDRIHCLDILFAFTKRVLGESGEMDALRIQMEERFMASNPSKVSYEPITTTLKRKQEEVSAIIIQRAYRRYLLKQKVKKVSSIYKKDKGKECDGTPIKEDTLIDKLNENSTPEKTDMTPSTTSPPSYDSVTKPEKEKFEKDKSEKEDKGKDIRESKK
# Chain of Protoxin-II (β/ω-theraphotoxin-Tp2a) (P83476 whole entry): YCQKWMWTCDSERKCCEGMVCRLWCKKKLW
substance,measurement,setting,value
Protoxin-II (β/ω-theraphotoxin-Tp2a) (from UniProt P83476 1-30) (peptide),"pIC50 of inhibition of sodium current, automated patch clamp (QPatch); fitted Emax 100 %",human Nav1.5 (human),6.4 -log10(IC50)
same,"pIC50 of inhibition of sodium current, automated patch clamp (QPatch); fitted Emax 100 %",human Nav1.4 (human),7.1 -log10(IC50)
same,"pIC50 of inhibition of sodium current, automated patch clamp (QPatch); fitted Emax 100 %",human Nav1.6 (human),7.5 -log10(IC50)
same,"pIC50 of inhibition of sodium current, automated patch clamp (QPatch); fitted Emax 100 %",human Nav1.2 (human),7.1 -log10(IC50)
same,"pIC50 of inhibition of sodium current, automated patch clamp (QPatch); fitted Emax 100 %",human Nav1.3 (human),7.6 -log10(IC50)
same,"pIC50 of inhibition of sodium current, automated patch clamp (QPatch); fitted Emax 100 %",human Nav1.1 (human),7.8 -log10(IC50)
